Reference: patent publication US20150010572A1 (SAMSUNG ELECTRONICS, published 2015)

Tests used:
[1] = target: T1, Ang-2 (R&D systems; 623-AN-025/CF) (human, UniProt O15123 19-496); assay: cell-based or functional assay
T1 sequence: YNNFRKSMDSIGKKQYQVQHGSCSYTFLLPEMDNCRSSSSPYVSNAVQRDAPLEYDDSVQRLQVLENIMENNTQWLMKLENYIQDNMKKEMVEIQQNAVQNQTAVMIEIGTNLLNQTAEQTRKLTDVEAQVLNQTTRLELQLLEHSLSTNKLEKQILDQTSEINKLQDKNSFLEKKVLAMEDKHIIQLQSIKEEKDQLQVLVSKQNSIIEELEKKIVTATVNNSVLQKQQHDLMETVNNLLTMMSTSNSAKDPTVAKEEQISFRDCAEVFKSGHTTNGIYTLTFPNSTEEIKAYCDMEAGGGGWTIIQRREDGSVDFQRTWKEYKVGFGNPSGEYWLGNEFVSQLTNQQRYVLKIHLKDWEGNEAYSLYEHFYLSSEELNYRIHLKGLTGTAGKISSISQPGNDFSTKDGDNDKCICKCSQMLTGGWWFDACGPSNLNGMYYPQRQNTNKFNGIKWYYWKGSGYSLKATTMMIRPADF

[2] = target: mutant Ang-2 protein, A449 substituted with alanine (FLAG-tagged at N-terminal) (human) (UniProt O15123); assay: ELISA, antibody coated, 250 ng FLAG-tagged mutant Ang-2, anti-FLAG-HRP, OD450 relative to native Ang-2
[3] = target: T2, integrin alphaVbeta3 (R&D systems) (human, UniProt P06756 31-992; P05106 27-718); assay: ELISA, integrin coated at 5 ug/ml, FLAG-Ang-2 10 ug/ml, anti-FLAG-HRP
T2 construct: Bought heterodimer coated on an ELISA plate; also called αVβ3; purified alphaVbeta3 protein
Method: (§1) An ELISA plate was coated with diluting solutions of three kinds of integrin (integrin; alpha5beta1 (α5β1; α5: NCBI Accession No. P08648, β1: NCBI Accession No. P05556), alphaVbeta1 (αVβ1; αV: NCBI Accession No. P06756, β1: NCBI Accession No. P05556), and alphaVbeta3 (αVβ3; αV: NCBI Accession No. P06756, β3: NCBI Accession No. P05106); R&D systems) proteins diluted in PBS at a concentration of 5 μg/ml (18 hours, 4° C.) and then blocked with 1% (v/v) BSA at a room temperature for 1 hour. Thereafter, the plate was treated with Ang-2 protein (FLAG-Ang-2, 0.1 ml of Ang-2 protein solution diluted in PBS at a concentration of 10 μg/ml) tagged with a FLAG sequence ([…], Sigma) at N-terminal, incubated at a room temperature for 2 hours, and washed five times with 0.05% PBST (0.05% (v/v) Tween-20-containing phosphate buffer saline). After that, an anti-FLAG antibody (Sigma) conjugated with horseradish peroxidase (HRP) was added to react, and the plate was washed again five times with PBST. Bindings between Ang-2 and the three kinds of integrins were identified indirectly by measuring the amounts of the anti-FLAG antibody remaining in the ELISA plate via color development reaction using TMB (3,3,5,5-tetramethylbenzidine) as a substrate of HRP. As a negative control, those that were blocked only (treated with BSA only) without Ang-2 protein treatment were used.

[4] = target: T3, integrin alpha5beta1 (R&D systems) (human, UniProt P08648 42-995; P05556 21-728); assay: as above
T3 construct: Bought heterodimer coated on an ELISA plate; also called α5β1
Method: as §1

[5] = target: T4, integrin alphaVbeta1 (R&D systems) (human, UniProt P06756 31-992; P05556 21-728); assay: as above
T4 construct: Bought heterodimer coated on an ELISA plate; also called αVβ1
Method: as §1

T2 sequence (P06756 31-992 limits assumed, chain 1 of 2): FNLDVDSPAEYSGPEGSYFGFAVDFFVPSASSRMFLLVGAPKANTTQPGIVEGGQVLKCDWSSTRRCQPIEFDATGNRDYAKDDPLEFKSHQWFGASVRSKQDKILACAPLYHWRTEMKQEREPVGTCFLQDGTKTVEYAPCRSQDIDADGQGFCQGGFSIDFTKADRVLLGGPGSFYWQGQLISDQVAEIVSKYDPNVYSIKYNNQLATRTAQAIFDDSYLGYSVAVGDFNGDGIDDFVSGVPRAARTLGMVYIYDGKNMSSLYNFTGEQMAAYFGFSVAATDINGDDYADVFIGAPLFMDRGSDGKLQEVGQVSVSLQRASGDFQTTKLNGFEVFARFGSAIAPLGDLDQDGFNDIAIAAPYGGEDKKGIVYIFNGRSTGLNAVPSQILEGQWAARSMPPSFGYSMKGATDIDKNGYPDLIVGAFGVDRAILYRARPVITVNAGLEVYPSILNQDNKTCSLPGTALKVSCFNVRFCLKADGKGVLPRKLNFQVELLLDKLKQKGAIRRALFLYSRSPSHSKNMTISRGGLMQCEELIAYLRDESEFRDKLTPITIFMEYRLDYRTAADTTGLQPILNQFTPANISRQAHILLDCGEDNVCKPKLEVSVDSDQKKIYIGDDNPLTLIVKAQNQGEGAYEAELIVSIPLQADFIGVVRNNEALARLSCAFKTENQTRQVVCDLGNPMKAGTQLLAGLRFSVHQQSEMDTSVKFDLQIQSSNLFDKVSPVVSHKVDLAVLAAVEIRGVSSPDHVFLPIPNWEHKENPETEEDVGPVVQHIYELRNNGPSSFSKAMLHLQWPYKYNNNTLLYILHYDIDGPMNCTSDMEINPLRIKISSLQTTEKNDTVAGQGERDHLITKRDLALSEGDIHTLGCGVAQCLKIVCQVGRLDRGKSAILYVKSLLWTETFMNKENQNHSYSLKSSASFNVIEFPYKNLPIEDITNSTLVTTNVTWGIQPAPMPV
T2 sequence (P05106 27-718 limits assumed, chain 2 of 2): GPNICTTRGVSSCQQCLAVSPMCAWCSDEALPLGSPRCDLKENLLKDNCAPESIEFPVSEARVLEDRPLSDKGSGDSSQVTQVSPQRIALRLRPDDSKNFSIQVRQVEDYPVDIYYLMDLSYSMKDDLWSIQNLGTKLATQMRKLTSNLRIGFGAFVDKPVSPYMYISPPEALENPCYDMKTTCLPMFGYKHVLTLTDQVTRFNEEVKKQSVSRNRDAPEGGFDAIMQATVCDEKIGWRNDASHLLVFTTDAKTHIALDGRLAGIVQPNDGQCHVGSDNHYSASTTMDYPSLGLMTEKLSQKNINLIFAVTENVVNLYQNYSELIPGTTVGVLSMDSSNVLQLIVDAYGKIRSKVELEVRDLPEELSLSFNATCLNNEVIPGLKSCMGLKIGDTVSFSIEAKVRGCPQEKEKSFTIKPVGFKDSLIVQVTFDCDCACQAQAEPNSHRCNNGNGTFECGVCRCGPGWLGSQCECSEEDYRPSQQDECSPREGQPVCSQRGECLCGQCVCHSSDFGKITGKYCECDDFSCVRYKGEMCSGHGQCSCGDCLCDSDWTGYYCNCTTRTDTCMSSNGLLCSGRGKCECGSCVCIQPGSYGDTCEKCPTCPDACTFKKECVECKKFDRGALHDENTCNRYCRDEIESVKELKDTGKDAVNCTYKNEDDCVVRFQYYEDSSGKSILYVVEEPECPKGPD
T4 sequence (P06756 31-992 limits assumed, chain 1 of 2): as the sequence (P06756 31-992 limits assumed, chain 1 of 2) above
T4 sequence (P05556 21-728 limits assumed, chain 2 of 2): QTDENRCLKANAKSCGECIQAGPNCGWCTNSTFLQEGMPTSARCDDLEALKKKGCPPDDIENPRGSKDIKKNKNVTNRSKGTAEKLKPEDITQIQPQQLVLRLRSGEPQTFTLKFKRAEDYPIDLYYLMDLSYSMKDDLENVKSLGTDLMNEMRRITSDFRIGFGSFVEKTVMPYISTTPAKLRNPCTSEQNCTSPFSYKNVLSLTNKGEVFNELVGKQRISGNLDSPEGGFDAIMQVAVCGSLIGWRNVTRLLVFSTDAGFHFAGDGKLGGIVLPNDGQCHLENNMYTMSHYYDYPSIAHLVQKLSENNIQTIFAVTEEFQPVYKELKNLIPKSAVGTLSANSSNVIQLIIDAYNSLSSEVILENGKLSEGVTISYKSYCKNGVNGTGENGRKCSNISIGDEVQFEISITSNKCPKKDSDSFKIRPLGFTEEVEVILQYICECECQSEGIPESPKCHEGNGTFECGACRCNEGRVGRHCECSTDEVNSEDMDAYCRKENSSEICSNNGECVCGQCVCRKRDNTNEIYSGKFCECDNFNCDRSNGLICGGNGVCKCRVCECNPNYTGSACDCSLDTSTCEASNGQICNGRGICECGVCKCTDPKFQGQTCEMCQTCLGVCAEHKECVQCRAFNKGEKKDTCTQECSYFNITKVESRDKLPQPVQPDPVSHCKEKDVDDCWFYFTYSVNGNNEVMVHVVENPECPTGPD
T3 sequence (P08648 42-995 limits assumed, chain 1 of 2): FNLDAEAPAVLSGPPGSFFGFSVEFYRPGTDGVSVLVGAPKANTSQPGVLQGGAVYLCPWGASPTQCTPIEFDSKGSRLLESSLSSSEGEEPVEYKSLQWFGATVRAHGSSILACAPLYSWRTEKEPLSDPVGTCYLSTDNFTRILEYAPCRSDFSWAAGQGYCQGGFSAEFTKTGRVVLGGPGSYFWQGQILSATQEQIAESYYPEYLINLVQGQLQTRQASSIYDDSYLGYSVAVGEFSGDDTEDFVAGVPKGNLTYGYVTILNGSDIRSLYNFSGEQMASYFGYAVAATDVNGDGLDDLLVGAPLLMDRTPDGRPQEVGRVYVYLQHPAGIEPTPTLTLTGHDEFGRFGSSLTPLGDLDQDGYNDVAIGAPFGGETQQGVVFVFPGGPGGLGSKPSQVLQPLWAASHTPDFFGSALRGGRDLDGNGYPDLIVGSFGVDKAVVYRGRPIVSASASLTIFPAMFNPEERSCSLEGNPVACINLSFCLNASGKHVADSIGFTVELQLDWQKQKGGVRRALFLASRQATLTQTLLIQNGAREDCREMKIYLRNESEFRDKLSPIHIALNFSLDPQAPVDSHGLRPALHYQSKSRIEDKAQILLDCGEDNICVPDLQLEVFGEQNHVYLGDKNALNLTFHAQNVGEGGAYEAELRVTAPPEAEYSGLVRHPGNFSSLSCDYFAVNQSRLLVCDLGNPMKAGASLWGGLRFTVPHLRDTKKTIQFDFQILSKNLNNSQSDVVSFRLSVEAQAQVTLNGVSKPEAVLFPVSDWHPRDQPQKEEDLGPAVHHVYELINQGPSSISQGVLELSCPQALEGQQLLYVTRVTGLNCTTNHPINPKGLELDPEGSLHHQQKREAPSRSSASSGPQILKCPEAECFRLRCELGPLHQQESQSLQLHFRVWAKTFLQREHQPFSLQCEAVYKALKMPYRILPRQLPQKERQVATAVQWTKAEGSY
T3 sequence (P05556 21-728 limits assumed, chain 2 of 2): as the sequence (P05556 21-728 limits assumed, chain 2 of 2) above

B1: SAIT-Ang-2-AB-m7F8 (antibody, V domains shown)
VH: DVQLQESGPGLVKPSQSLSLTCTVTGYSITSDYAWNWIRQFPGNKLEWMGYISYSGSTSYNPSLKSRISITRDTSKNQFFLQLNSVTPEDTATYYCARSTFGHYVSSMDYWGQGTSVTVSS
VL: SIVMTQTPKLLLVSAGDRVTITCKASQSASNDVAWYQQKPGQSPKLLIYYASNRYTGVPDRFTGSGYGTDFTFAISTVQAEDLAIYFCQQDYSSPPTFGGGTKLEIK
Ang-2-depedent Cell Adhesion Degree (%) [1]: 35.1%
% at RBD binding (mutant Ang-2 against native Ang-2) [2]: 94.1%

B2: FLAG-tagged hAng-2 (ligand)
chain: DYKDDDDKYNNFRKSMDSIGKKQYQVQHGSCSYTFLLPEMDNCRSSSSPYVSNAVQRDAPLEYDDSVQRLQVLENIMENNTQWLMKLENYIQDNMKKEMVEIQQNAVQNQTAVMIEIGTNLLNQTAEQTRKLTDVEAQVLNQTTRLELQLLEHSLSTNKLEKQILDQTSEINKLQDKNSFLEKKVLAMEDKHIIQLQSIKEEKDQLQVLVSKQNSIIEELEKKIVTATVNNSVLQKQQHDLMETVNNLLTMMSTSNSAKDPTVAKEEQISFRDCAEVFKSGHTTNGIYTLTFPNSTEEIKAYCDMEAGGGGWTIIQRREDGSVDFQRTWKEYKVGFGNPSGEYWLGNEFVSQLTNQQRYVLKIHLKDWEGNEAYSLYEHFYLSSEELNYRIHLKGLTGTAGKISSISQPGNDFSTKDGDNDKCICKCSQMLTGGWWFDACGPSNLNGMYYPQRQNTNKFNGIKWYYWKGSGYSLKATTMMIRPADF
notes: also called FLAG-Ang-2
binding result [3]: binds
binding result [4]: binds
binding result [5]: binds
